Measurements from paper PMC5120866 (Cancer research, 2016).

Biological target: Integrin β3 (human (endogenous in ovarian cancer …, UniProt P05106 27-788))
Test: co-IP

Integrin β3 (human, sequence (P05106 27-788): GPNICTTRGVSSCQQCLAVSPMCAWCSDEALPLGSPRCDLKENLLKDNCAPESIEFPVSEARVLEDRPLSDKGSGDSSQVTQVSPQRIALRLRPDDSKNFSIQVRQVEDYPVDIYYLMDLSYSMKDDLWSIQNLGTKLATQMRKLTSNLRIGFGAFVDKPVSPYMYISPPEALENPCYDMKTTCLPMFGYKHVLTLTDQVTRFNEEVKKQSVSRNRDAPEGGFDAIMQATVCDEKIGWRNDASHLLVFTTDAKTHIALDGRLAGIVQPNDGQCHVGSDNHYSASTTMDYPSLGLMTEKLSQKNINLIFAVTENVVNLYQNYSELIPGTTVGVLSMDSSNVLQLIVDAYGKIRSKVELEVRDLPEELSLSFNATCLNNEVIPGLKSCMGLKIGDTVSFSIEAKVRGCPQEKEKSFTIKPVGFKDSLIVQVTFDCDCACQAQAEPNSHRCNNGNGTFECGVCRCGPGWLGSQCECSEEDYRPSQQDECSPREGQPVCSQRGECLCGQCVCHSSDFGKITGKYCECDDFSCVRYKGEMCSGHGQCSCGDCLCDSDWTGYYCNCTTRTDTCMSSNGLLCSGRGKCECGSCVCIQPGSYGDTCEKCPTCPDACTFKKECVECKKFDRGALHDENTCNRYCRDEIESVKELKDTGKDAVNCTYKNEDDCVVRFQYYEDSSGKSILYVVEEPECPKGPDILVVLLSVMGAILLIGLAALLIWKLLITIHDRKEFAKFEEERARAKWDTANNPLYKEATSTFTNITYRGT

B1: EGFL6 (wild-type, FLAG-EGFL6) (ligand, human, UniProt Q8IUX8-1 22-553, looked up)
chain: NAASARHHGLLASARQPGVCHYGTKLACCYGWRRNSKGVCEATCEPGCKFGECVGPNKCRCFPGYTGKTCSQDVNECGMKPRPCQHRCVNTHGSYKCFCLSGHMLMPDATCVNSRTCAMINCQYSCEDTEEGPQCLCPSSGLRLAPNGRDCLDIDECASGKVICPYNRRCVNTFGSYYCKCHIGFELQYISGRYDCIDINECTMDSHTCSHHANCFNTQGSFKCKCKQGYKGNGLRCSAIPENSVKEVLRAPGTIKDRIKKLLAHKNSMKKKAKIKNVTPEPTRTPTPKVNLQPFNYEEIVSRGGNSHGGKKGNEEKMKEGLEDEKREEKALKNDIEERSLRGDVFFPKVNEAGEFGLILVQRKALTSKLEHKDLNISVDCSFNHGICDWKQDREDDFDWNPADRDNAIGFYMAVPALAGHKKDIGRLKLLLPDLQPQSNFCLLFDYRLAGDKVGKLRVFVKNSNNALAWEKTTSEDEKWKTGKIQLYQGTDATKSIIFEAERGKGKTGEIAVDGVLLVSGLCPDSLLSVDD
fold co-immunoprecipitation against EGFL6^RGE: 4.6 fold
